Kd and fold increase in affinity over … (SEQ ID NO:368) data for 51 molecules are collected here from patent US20050202033A1.

Assay [1] deals with recombinant human or murine heat shock protein 70 (hsp70) (human or murine) (UniProt P0DMV8). The assay can be described thus: on hsp70.
Assay [2] shares this target. The experiment in a line: binding inhibition assay (Hill plot) against tritiated … on hsp70.
Assay [3] deals with T1, recombinant human or murine heat shock protein 70 (hsp70) (human or murine), P0DMV8. Described as above.
T1 sequence (P0DMV8 whole entry): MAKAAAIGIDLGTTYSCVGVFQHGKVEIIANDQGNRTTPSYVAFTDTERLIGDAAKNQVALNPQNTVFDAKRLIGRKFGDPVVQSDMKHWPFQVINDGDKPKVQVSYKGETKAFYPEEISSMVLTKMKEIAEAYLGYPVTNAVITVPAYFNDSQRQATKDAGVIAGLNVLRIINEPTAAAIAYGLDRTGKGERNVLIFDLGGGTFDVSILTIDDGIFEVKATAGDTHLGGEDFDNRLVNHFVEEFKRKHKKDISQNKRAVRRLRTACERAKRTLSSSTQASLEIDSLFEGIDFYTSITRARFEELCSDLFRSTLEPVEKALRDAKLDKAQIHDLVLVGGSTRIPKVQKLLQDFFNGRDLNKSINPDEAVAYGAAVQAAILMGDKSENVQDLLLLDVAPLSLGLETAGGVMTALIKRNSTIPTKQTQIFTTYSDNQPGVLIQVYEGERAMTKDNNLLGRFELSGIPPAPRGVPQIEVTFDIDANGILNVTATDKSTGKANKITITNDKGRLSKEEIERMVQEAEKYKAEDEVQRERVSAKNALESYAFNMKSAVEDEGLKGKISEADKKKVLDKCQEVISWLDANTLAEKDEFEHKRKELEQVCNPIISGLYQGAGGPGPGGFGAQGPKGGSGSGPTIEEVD
The target of assay [4] is T1, recombinant human or murine heat shock …. The experiment in a line: binding inhibition assay as in Example 2, on hsp70.
Assay [5] has the same target. The experiment in a line: on hsp70.
For assay [6] the target is unchanged. The experiment in a line: competition against a labeled reporter peptide on HSP70; Kd calculated from IC50 (Hill plot).
Assay [7] has the same target. The experiment in a line: binding inhibition assay (Hill plot) or Scatchard analysis of the reference on hsp70.

Broadly, the Kd is the concentration at which binding is half-saturated.

Chain of recombinant human or murine heat shock protein 70 (hsp70) (human or murine) (P0DMV8 whole entry): as above

Take “[…] (HIV Pol: 464-472) (peptide; other documents disagree on this pair)”: the Kd in assay [1] worked out at 83 µM.
Take “[…] (HPV Strain 16 E7 11-20) (peptide; other documents disagree on this pair)”: the Kd in assay [2] is 91 µM.
On to FYQLALTW (modifications not checked), for which, in assay [3], the Kd came out at 5.9 µM.
With KASEKIFYV (modifications not checked) [… (SSX-2: 41-49)], the Kd in assay [4] was determined as 57 µM.
ILKEPVHGVGSGNLLRLTGW (modifications not checked): the Kd in assay [5] came to 1.2 µM.
With IMDQVPFSVGSGNLLRLTGW (modifications not checked), the Kd amounted to 0.9 µM in assay [4] and 3.1 µM in assay [3].
On to VLDVGDAYFSV (modifications not checked) [… (HIV Pol: 263-273)], for which the equilibrium dissociation constant (Kd) in assay [5] stood at 110 µM.
Same read-out and setting: to AFHHVAREL (modifications not checked) belongs 84 µM; to SLFNTVATL (modifications not checked) [… (HIV Gag/p17: 77-85 (79F))], 35 µM.
Regarding TLGIVCPI (modifications not checked) [TLGIVCPI (HPV Strain 16 E7 86-93)], the Kd in assay [3] was 187 µM.
For KASEKIFYVGSGNLLRLTGW (modifications not checked), the equilibrium dissociation constant (Kd) in assay [4] stood at 1.4 µM.
IMDQVPFSVGSGHWDFAWPW (modifications not checked): the Kd in assay [3] is 155 µM.
The same measure, in the same setting: to SIINFEKLGSGHWDFAWPW (modifications not checked) [SIINFEKLgsgHWDFAWPW] belongs 40 µM.
With SIINFEKLGSGNLLRLTGW (modifications not checked) [SIINFEKLgsgNLLRLTGW], in assay [3], the dissociation constant Kd was 1.2 µM. Moreover, the fold increase in affinity over … (SEQ ID NO:368) in assay [6] was 15 fold.
For the molecule RGYVYQGL (modifications not checked) [RGYVYQGL (VSV nucleoprotein amino acids 52-59)], the equilibrium dissociation constant (Kd) in assay [5] came out at 82 µM.
Turning to YLEPGPVTV (modifications not checked) [… (GP100: 280-288 (288V))], the dissociation constant (Kd) in assay [4] was 71 µM.
Consider HWDFAWPWGSGSIINFEKL (modifications not checked) [HWDFAWPWgsgSIINFEKL], for which, in assay [3], the Kd stood at 4.3 µM.
Turning to SVYDFFVWL (modifications not checked) [… (Trp-2: 180-188)], the dissociation constant (Kd) in assay [4] was determined as 81 µM.
Turning to VLDVGDAYFSVGSGNLLRLTGW (modifications not checked), the Kd in assay [5] was 2 µM.
Consider GLYDGMEHLGSGNLLRLTGW (modifications not checked), for which the Kd in assay [4] stood at 1.1 µM.
Consider SIINFEKLGSGFYQLALTW (modifications not checked) [SIINFEKLgsgFYQLALTW], for which the dissociation constant (Kd) in assay [3] came to 1.43 µM.
Take SIINFEKL (modifications not checked) [SIINFEKL (ovalbumin amino acids 257-264)]: the values for the Kd in assay [5] and in assay [3] were 235 µM and 279 µM, respectively.
Regarding IMDQVPFSV (modifications not checked) [… (Gp100 209-217, T210M)], the Kd in assay [4] turned out to be 2570 µM; in assay [3] it was 2560 µM.
On to YLEPGPVTVGSGNLLRLTGW (modifications not checked), for which the Kd in assay [4] is 2 µM.
With ALFDIESKV (modifications not checked) [… (Prostate Specific Membrane Antigen 771-779)], the Kd in assay [3] came out at 145 µM.
AIIRILQQL (modifications not checked) [… (HIV Vpr: 59-67)]: the Kd in assay [5] is 93 µM.
For the molecule VIYQYMDDLGSGNLLRLTGW (modifications not checked), in assay [5], the Kd was 1.7 µM.
Same read-out and setting: to AFHHVARELGSGNLLRLTGW (modifications not checked) belongs 2.1 µM; to NLLRLTGWGSGSIINFEKL (modifications not checked), 1.6 µM.
Turning to SIINFEKLGSGRKLFFNLRW (modifications not checked) [SIINFEKLgsg…], the Kd in assay [3] worked out at 7 µM.
Same read-out and setting: to ALFDIESKVGSGNLLRLTGW (modifications not checked) [PSMA P2 hybrid antigen with NLLRLTGW] belongs 1.3 µM.
For VIYQYMDDL (modifications not checked) [… (HIV Pol: 334-342)], in assay [5], the Kd turned out to be 91 µM.
Still for that read-out and setting: to ALKHRAYELGSGNLLRLTGW (modifications not checked) belongs 1.1 µM.
For the molecule YMDGTMSQVGSGHWDFAWPW (modifications not checked), the Kd in assay [3] is 24 µM.
Still for that read-out and setting: to TLGIVCPIGSGHWDFAWPW (modifications not checked) [TLGIVCPIgsgHWDFAWPW] belongs 9.1 µM.
For the molecule AIIRILQQLGSGNLLRLTGW (modifications not checked) [ALIRJ… (as printed; hybrid antigen of the Vpr: 59-67 epitope)], in assay [5], the dissociation constant (Kd) worked out at 0.6 µM.
For the molecule SVYDFFVWLGSGNLLRLTGW (modifications not checked), the Kd in assay [4] was 2.9 µM.
For SLLMWITQVGSGNLLRLTGW (modifications not checked), the Kd in assay [4] amounted to 2.2 µM.
As for NLLRLTGW (modifications not checked), the Kd in assay [3] is 1.85 µM.
In the case of YMDGTMSQVGSGNLLRLTGW (modifications not checked), the Kd in assay [4] was determined as 1.8 µM; in assay [3] it was 2.65 µM.
Consider TLGIVCPIGSGNLLRLTGW (modifications not checked) [TLGIVCPIgsgNLLRLTGW], for which the Kd in assay [3] is 5.2 µM.
On the same count and under the same terms, to RKLFFNLRW (modifications not checked) belongs 15 µM.
Same read-out and setting: to YMLDLQPETTGSGHWDFAWPW (modifications not checked) belongs 27 µM.
As for SLYNTVATLGSGNLLRLTGW (modifications not checked), the Kd in assay [5] was 1.8 µM.
For the molecule ALFDIESKVGSGHWDFAWPW (modifications not checked), in assay [7], the dissociation constant Kd was 22 µM.
As for GLYDGMEHL (modifications not checked) [… (MAGE-10: 254-262)], the dissociation constant Kd in assay [4] amounted to 48 µM.
Consider HWDFAWPWGSGYMDGTMSQV (modifications not checked) [HWDFAWPWgsg…], for which the Kd in assay [3] came out at 29 µM.
Consider SLFNTVATLGSGNLLRLTGW (modifications not checked), for which the Kd in assay [5] stood at 1.9 µM.
On to YMDGTMSQV (modifications not checked) [… (Tyrosinase 368-376, 370D)], for which the Kd is 209 µM in assay [4] and 204 µM in assay [3].
With ALKHRAYEL (modifications not checked), the Kd in assay [5] came out at 97 µM.
Regarding HWDFAWPW (modifications not checked), the equilibrium dissociation constant (Kd) in assay [3] worked out at 120 µM.
